Measured values reported in patent US20150344580A1 (published 2015).

Experiments:
[1] = target: T1, human chemokine receptor CCR7 (UniProt P32248 25-378); experiment: FACS cell binding; after pH stress (2hr)
T1 chain: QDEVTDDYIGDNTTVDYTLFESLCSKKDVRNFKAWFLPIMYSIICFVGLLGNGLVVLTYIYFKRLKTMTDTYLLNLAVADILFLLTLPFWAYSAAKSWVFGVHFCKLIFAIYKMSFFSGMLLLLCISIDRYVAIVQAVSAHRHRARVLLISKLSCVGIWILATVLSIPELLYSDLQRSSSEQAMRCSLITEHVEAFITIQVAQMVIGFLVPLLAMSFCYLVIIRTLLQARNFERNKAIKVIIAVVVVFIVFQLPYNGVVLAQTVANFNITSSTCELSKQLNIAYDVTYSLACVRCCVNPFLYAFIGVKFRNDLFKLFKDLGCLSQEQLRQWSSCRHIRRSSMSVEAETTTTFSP

[2] = target: T1, human chemokine receptor CCR7; experiment: FACS cell binding; after pH stress (3hr)
[3] = target: T1, human chemokine receptor CCR7; experiment: FACS cell binding; after temperature stress
[4] = target: T1, human chemokine receptor CCR7; experiment: FACS cell binding; after pH stress (2hr)
[5] = target: T1, human chemokine receptor CCR7; experiment: FACS cell binding; after pH stress (3hr)

B1: MSM R707 in IgG4 format (antibody, V domains shown)
VH: EVQLLESGGGLVQPGGSLRLSCAASGFTFSNYAIHWVRQAPGKGLEWVSAITPRGGYTYYADSVKGRFTISRDNSKNTLYLQMNSLRAEDTAVYYCARGLTMMYTPGMDYWGQGTLVTVSS
VL: not shown
- EC50 [1]: ~9.4 nM
- EC50 [2]: ~9.1 nM
- EC50 [3]: ~6 nM

B2: MSM R735 in IgG4 format (antibody, V domains shown)
VH: EVQLLESGGGLVQPGGSLRLSCAASGFTFSNYNMHWVRQAPGKGLEWVSGIGPRRGRTYYADSVKGRFTISRDNSKNTLYLQMNSLRAEDTAVYYCARSYAYQYRGLDYWGQGTLVTVSS
VL: EIVLTQSPGTLSLSPGERATLSCRASQSVSSSYLAWYQQKPGQAPRLLIYGASSRATGIPDRFSGSGSGTDFTLTISRLEPEDFAVYYCQQGSPVTFGQGTKVEIKR
- EC50 [4]: ~4.6 nM
- EC50 [5]: ~7.6 nM
